Data from article PMC3899939, “IpsA, a novel LacI-type regulator, is required for inositol-derived lipid formation in Corynebacteria and Mycobacteria” (BMC Biology, 2013).
Where a chain is given by its changes, count along the chain named.

Legend:
IpsA (Cg2910) = target: T1, IpsA (Cg2910) (Corynebacterium glutamicum, UniProt Q8NMF0); assay: EMSA, dissociation of IpsA-DNA complex (ino1 promoter); type: binding; conditions: effector; IpsA preincubated 20 min with effector, then DNA; 50 mM Tris-HCl pH 7.5, 40 mM KCl, 5 mM MgCl2, room temperature
T1 construct: C-terminal STREP-tag variant (pAN6-ipsA-STREP), expressed in E. coli BL21(DE3), StrepTactin and gel filtration; 79 kDa, dimer
T1 sequence (Q8NMF0 1-358): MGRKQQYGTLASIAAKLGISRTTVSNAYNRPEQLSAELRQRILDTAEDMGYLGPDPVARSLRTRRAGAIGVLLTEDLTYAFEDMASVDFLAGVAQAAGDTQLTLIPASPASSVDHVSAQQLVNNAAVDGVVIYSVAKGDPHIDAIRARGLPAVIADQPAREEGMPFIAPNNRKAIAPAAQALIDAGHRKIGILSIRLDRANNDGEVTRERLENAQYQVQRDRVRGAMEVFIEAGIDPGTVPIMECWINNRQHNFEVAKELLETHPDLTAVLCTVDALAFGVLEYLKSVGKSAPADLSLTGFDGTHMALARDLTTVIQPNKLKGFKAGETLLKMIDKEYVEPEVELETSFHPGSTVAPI

IpsA-Strep = target: T2, IpsA-Strep (Corynebacterium glutamicum ATCC 13032, UniProt Q8NMF0 1-358); assay: EMSA; EMSA: 50 mM Tris-HCl pH 7.5, 40 mM KCl, 5 mM MgCl2, room temperature, 10 uL, DNA 0.028-1 uM, 10-15% native PAGE; conditions: protein: recombinant; tags: C-terminal STREP-tag; chain copies: 2; blunt
T2 sequence: T1 sequence (Q8NMF0 1-358)

Molecule: O[C@H]1[C@H](O)[C@@H](O)[C@H](O)[C@@H](O)[C@H]1O [myo-I, myo-inositol]
- lowest concentration with observed effect (IpsA (Cg2910)): 0.2 mM

B1: cg3323 M4 (dsDNA)
DNA 1: TTGAGTTGCTTGATCTCGCAGGTCTGATTT
DNA 2: AAATCAGACCTGCGAGATCAAGCAACTCAA
- binding result (IpsA-Strep): no binding

B2: cg3323 M5 (dsDNA)
DNA 1: TTGAGTTGCTTGATCGATACTGTCTGATTT
DNA 2: AAATCAGACAGTATCGATCAAGCAACTCAA
- binding result (IpsA-Strep): binds

B3: cg3323 M3 (dsDNA)
DNA 1: TTGAGTTGCTTGCGAGATCAGGTCTGATTT
DNA 2: AAATCAGACCTGATCTCGCAAGCAACTCAA
- binding result (IpsA-Strep): no binding

B4: cg3323 WT 30-mer (dsDNA)
DNA 1: B2 DNA 1 with A19C, C20A, T21G
DNA 2: B2 DNA 2 with A10C, G11T, T12G
- binding result (IpsA-Strep): binds
